The experiment addresses Human C3 (human, UniProt P01024 23-1663). The experiment in a line: cell-based or functional assay.

Starred links: 1 amine or outer side, 2 acyl side, 3 side chain; linkers in the order of their positions; H or OH if unused. Positions of bridges follow the written chain, without caps; N, C: chain ends. Non-standard residues stand in square brackets, D forms with d. Groups on a side chain read outwards from the residue. *: point of attachment. Trp(1-Me) = Cn1cc(C[C@H](N)C(=O)O)c2ccccc21; C18 diacid = O=C(O)CCCCCCCCCCCCCCCCC(=O)*; C16 diacid = O=C(O)CCCCCCCCCCCCCCC(=O)*; γGlu = O=C(O)[C@H](CCC(=O)[*:2])N[*:1]; AEEA = NCCOCCOCC(=O)O; Sar = CNCC(=O)O

Chain of Human C3 (P01024 23-1663 limits assumed): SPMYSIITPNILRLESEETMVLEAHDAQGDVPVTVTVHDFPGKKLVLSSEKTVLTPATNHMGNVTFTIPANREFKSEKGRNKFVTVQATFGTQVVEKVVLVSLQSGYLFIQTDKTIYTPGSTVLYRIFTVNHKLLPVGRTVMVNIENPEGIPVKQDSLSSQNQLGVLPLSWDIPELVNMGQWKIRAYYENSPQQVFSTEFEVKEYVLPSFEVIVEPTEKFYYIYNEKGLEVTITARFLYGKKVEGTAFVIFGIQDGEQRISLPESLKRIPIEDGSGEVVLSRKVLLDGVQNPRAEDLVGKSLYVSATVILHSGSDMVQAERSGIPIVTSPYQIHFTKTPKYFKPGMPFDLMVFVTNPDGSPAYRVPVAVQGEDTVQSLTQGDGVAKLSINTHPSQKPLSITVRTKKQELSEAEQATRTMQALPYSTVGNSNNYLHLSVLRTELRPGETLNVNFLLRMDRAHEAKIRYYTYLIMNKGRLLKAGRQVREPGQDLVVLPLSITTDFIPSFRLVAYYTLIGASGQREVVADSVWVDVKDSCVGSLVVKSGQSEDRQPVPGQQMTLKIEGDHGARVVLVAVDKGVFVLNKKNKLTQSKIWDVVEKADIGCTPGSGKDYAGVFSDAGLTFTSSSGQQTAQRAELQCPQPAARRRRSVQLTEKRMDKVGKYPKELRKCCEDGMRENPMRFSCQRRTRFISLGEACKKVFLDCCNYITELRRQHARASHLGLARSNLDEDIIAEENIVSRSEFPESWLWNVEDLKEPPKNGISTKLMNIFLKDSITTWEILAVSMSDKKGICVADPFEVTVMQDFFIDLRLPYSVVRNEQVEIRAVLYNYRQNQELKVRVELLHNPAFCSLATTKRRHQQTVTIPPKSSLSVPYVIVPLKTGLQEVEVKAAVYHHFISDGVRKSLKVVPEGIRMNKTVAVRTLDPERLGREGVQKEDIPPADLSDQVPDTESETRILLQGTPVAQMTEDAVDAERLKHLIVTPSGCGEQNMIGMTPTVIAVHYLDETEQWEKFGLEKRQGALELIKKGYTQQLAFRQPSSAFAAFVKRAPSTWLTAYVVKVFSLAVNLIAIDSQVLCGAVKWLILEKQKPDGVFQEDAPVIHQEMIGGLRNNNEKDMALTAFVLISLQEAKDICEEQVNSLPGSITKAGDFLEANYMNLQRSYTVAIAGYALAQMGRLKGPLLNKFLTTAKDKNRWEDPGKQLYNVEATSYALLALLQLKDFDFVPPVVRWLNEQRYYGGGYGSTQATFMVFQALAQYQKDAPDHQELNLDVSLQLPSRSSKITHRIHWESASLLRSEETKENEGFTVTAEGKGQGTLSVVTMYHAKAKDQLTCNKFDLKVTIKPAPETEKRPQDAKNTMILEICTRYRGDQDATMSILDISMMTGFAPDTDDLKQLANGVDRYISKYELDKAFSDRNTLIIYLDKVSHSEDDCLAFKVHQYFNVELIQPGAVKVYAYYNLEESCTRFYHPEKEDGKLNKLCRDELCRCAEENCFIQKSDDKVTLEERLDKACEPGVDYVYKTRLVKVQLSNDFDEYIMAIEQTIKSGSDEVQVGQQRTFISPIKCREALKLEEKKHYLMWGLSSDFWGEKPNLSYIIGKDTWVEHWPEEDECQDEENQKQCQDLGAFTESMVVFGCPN

Turning to Ac-SEYCI[Trp(1-Me)]QDWGEHRC[Sar]EGEK([γGlu-Lys-γGlu-C18 diacid])-NH2 (disulfide 4-14) [Compound 116], the IC50[nM], inhibition of hemolysis was less than 500 nM.

B1: Compound 143 (peptide)
peptide: Ac-SEFCI[Trp(1-Me)]QDWGEHRC[Sar]EGE[AEEA][AEEA][AEEA]K([γGlu-Gly-γGlu-C18 diacid])-NH2
modifications: disulfide 4-14
SMILES: CC[C@H](C)[C@@H]1NC(=O)[C@@H](NC(=O)[C@H](Cc2ccccc2)NC(=O)[C@H](CCC(=O)O)NC(=O)[C@H](CO)NC(C)=O)CSSC[C@@H](C(=O)N(C)CC(=O)N[C@@H](CCC(=O)O)C(=O)NCC(=O)N[C@@H](CCC(=O)O)C(=O)NCCOCCOCC(=O)NCCOCCOCC(=O)NCCOCCOCC(=O)N[C@@H](CCCCNC(=O)CC[C@H](NC(=O)CNC(=O)CC[C@H](NC(=O)CCCCCCCCCCCCCCCCC(=O)O)C(=O)O)C(=O)O)C(N)=O)NC(=O)[C@H](CCCNC(=N)N)NC(=O)[C@H](Cc2c[nH]cn2)NC(=O)[C@H](CCC(=O)O)NC(=O)CNC(=O)[C@H](Cc2c[nH]c3ccccc23)NC(=O)[C@H](CC(=O)O)NC(=O)[C@H](CCC(N)=O)NC(=O)[C@H](Cc2cn(C)c3ccccc23)NC1=O
As to B1, the IC50[nM], inhibition of hemolysis is less than 100 nM.

Take Ac-SEFCI[Trp(1-Me)]QDWGEHRC[Sar]EGE[AEEA]K([γGlu-Gly-γGlu-C18 diacid])-NH2 (disulfide 4-14) [Compound 138]: the IC50[nM], inhibition of hemolysis was less than 100 nM.

B2: Compound 133 (peptide)
peptide: Ac-SEFCI[Trp(1-Me)]QDWGEHRCTEK[γGlu]GGGK([γGlu-Gly-γGlu-C18 diacid])-NH2
modifications: disulfide 4-14
SMILES: CC[C@H](C)[C@@H]1NC(=O)[C@@H](NC(=O)[C@H](Cc2ccccc2)NC(=O)[C@H](CCC(=O)O)NC(=O)[C@H](CO)NC(C)=O)CSSC[C@@H](C(=O)N[C@H](C(=O)N[C@@H](CCC(=O)O)C(=O)N[C@@H](CCCCN)C(=O)N[C@@H](CCC(=O)NCC(=O)NCC(=O)NCC(=O)N[C@@H](CCCCNC(=O)CC[C@H](NC(=O)CNC(=O)CC[C@H](NC(=O)CCCCCCCCCCCCCCCCC(=O)O)C(=O)O)C(=O)O)C(N)=O)C(=O)O)[C@@H](C)O)NC(=O)[C@H](CCCNC(=N)N)NC(=O)[C@H](Cc2c[nH]cn2)NC(=O)[C@H](CCC(=O)O)NC(=O)CNC(=O)[C@H](Cc2c[nH]c3ccccc23)NC(=O)[C@H](CC(=O)O)NC(=O)[C@H](CCC(N)=O)NC(=O)[C@H](Cc2cn(C)c3ccccc23)NC1=O
On to B2, for which the IC50[nM], inhibition of hemolysis is less than 100 nM.

B3: Compound 132 (peptide)
peptide: Ac-SEFCI[Trp(1-Me)]QDWGEHRC[Sar]EK[γGlu]GGGK([γGlu-Gly-γGlu-C18 diacid])-NH2
modifications: disulfide 4-14
SMILES: CC[C@H](C)[C@@H]1NC(=O)[C@@H](NC(=O)[C@H](Cc2ccccc2)NC(=O)[C@H](CCC(=O)O)NC(=O)[C@H](CO)NC(C)=O)CSSC[C@@H](C(=O)N(C)CC(=O)N[C@@H](CCC(=O)O)C(=O)N[C@@H](CCCCN)C(=O)N[C@@H](CCC(=O)NCC(=O)NCC(=O)NCC(=O)N[C@@H](CCCCNC(=O)CC[C@H](NC(=O)CNC(=O)CC[C@H](NC(=O)CCCCCCCCCCCCCCCCC(=O)O)C(=O)O)C(=O)O)C(N)=O)C(=O)O)NC(=O)[C@H](CCCNC(=N)N)NC(=O)[C@H](Cc2c[nH]cn2)NC(=O)[C@H](CCC(=O)O)NC(=O)CNC(=O)[C@H](Cc2c[nH]c3ccccc23)NC(=O)[C@H](CC(=O)O)NC(=O)[C@H](CCC(N)=O)NC(=O)[C@H](Cc2cn(C)c3ccccc23)NC1=O
On to B3, for which the IC50[nM], inhibition of hemolysis was less than 100 nM.

B4: Compound 131 (peptide)
peptide: Ac-SEFCI[Trp(1-Me)]QDWGEHRCTEGEGGGK([γGlu-Gly-γGlu-C16 diacid])-NH2
modifications: disulfide 4-14
SMILES: CC[C@H](C)[C@@H]1NC(=O)[C@@H](NC(=O)[C@H](Cc2ccccc2)NC(=O)[C@H](CCC(=O)O)NC(=O)[C@H](CO)NC(C)=O)CSSC[C@@H](C(=O)N[C@H](C(=O)N[C@@H](CCC(=O)O)C(=O)NCC(=O)N[C@@H](CCC(=O)O)C(=O)NCC(=O)NCC(=O)NCC(=O)N[C@@H](CCCCNC(=O)CC[C@H](NC(=O)CNC(=O)CC[C@H](NC(=O)CCCCCCCCCCCCCCC(=O)O)C(=O)O)C(=O)O)C(N)=O)[C@@H](C)O)NC(=O)[C@H](CCCNC(=N)N)NC(=O)[C@H](Cc2c[nH]cn2)NC(=O)[C@H](CCC(=O)O)NC(=O)CNC(=O)[C@H](Cc2c[nH]c3ccccc23)NC(=O)[C@H](CC(=O)O)NC(=O)[C@H](CCC(N)=O)NC(=O)[C@H](Cc2cn(C)c3ccccc23)NC1=O
As to B4, the IC50[nM], inhibition of hemolysis is less than 100 nM.

B5: Compound 129 (peptide)
peptide: Ac-SEFCI[Trp(1-Me)]QDWGEHRC[Sar]EGEGGGK([γGlu-Gly-γGlu-C18 diacid])-NH2
modifications: disulfide 4-14
SMILES: CC[C@H](C)[C@@H]1NC(=O)[C@@H](NC(=O)[C@H](Cc2ccccc2)NC(=O)[C@H](CCC(=O)O)NC(=O)[C@H](CO)NC(C)=O)CSSC[C@@H](C(=O)N(C)CC(=O)N[C@@H](CCC(=O)O)C(=O)NCC(=O)N[C@@H](CCC(=O)O)C(=O)NCC(=O)NCC(=O)NCC(=O)N[C@@H](CCCCNC(=O)CC[C@H](NC(=O)CNC(=O)CC[C@H](NC(=O)CCCCCCCCCCCCCCCCC(=O)O)C(=O)O)C(=O)O)C(N)=O)NC(=O)[C@H](CCCNC(=N)N)NC(=O)[C@H](Cc2c[nH]cn2)NC(=O)[C@H](CCC(=O)O)NC(=O)CNC(=O)[C@H](Cc2c[nH]c3ccccc23)NC(=O)[C@H](CC(=O)O)NC(=O)[C@H](CCC(N)=O)NC(=O)[C@H](Cc2cn(C)c3ccccc23)NC1=O
B5 came in with an IC50[nM], inhibition of hemolysis of less than 100 nM.

The molecule Ac-SEFCI[Trp(1-Me)]QDWGEHRCTEGE[8‑aminooctanoyl]K([γGlu-Gly-γGlu-C18 diacid])-NH2 (disulfide 4-14) [Compound 136] came in with an IC50[nM], inhibition of hemolysis of less than 100 nM.

B6: Compound 113 (peptide)
peptide: Ac-ASGEYCI[Trp(1-Me)]QDWGEHRC[Sar]EGEK([γGlu-Gly-γGlu-C18 diacid])-NH2
modifications: disulfide 6-16
SMILES: CC[C@H](C)[C@@H]1NC(=O)[C@@H](NC(=O)[C@H](Cc2ccc(O)cc2)NC(=O)[C@H](CCC(=O)O)NC(=O)CNC(=O)[C@H](CO)NC(=O)[C@H](C)NC(C)=O)CSSC[C@@H](C(=O)N(C)CC(=O)N[C@@H](CCC(=O)O)C(=O)NCC(=O)N[C@@H](CCC(=O)O)C(=O)N[C@@H](CCCCNC(=O)CC[C@H](NC(=O)CNC(=O)CC[C@H](NC(=O)CCCCCCCCCCCCCCCCC(=O)O)C(=O)O)C(=O)O)C(N)=O)NC(=O)[C@H](CCCNC(=N)N)NC(=O)[C@H](Cc2c[nH]cn2)NC(=O)[C@H](CCC(=O)O)NC(=O)CNC(=O)[C@H](Cc2c[nH]c3ccccc23)NC(=O)[C@H](CC(=O)O)NC(=O)[C@H](CCC(N)=O)NC(=O)[C@H](Cc2cn(C)c3ccccc23)NC1=O
With B6, the IC50[nM], inhibition of hemolysis was less than 500 nM.

B7: Compound 134 (peptide)
peptide: Ac-EFCI[Trp(1-Me)]QDWGEHRCEGEK([γGlu-Gly-γGlu-C18 diacid])-NH2
modifications: disulfide 3-13
SMILES: CC[C@H](C)[C@@H]1NC(=O)[C@@H](NC(=O)[C@H](Cc2ccccc2)NC(=O)[C@H](CCC(=O)O)NC(C)=O)CSSC[C@@H](C(=O)N[C@@H](CCC(=O)O)C(=O)NCC(=O)N[C@@H](CCC(=O)O)C(=O)N[C@@H](CCCCNC(=O)CC[C@H](NC(=O)CNC(=O)CC[C@H](NC(=O)CCCCCCCCCCCCCCCCC(=O)O)C(=O)O)C(=O)O)C(N)=O)NC(=O)[C@H](CCCNC(=N)N)NC(=O)[C@H](Cc2c[nH]cn2)NC(=O)[C@H](CCC(=O)O)NC(=O)CNC(=O)[C@H](Cc2c[nH]c3ccccc23)NC(=O)[C@H](CC(=O)O)NC(=O)[C@H](CCC(N)=O)NC(=O)[C@H](Cc2cn(C)c3ccccc23)NC1=O
Molecule B7 registered an IC50[nM], inhibition of hemolysis of less than 100 nM.

The molecule Ac-SEFCI[Trp(1-Me)]QDWGEHRCTGAESK([γGlu-Gly-γGlu-15‑carboxy‑hexadecanoyl])-NH2 (disulfide 4-14) [Compound 135] came in with an IC50[nM], inhibition of hemolysis of less than 100 nM.

B8: Compound 114 (peptide)
peptide: Ac-SEYCI[Trp(1-Me)]QDWGEHRC[Sar]EGEK([γGlu-Gly-γGlu-C18 diacid])-NH2
modifications: disulfide 4-14
SMILES: CC[C@H](C)[C@@H]1NC(=O)[C@@H](NC(=O)[C@H](Cc2ccc(O)cc2)NC(=O)[C@H](CCC(=O)O)NC(=O)[C@H](CO)NC(C)=O)CSSC[C@@H](C(=O)N(C)CC(=O)N[C@@H](CCC(=O)O)C(=O)NCC(=O)N[C@@H](CCC(=O)O)C(=O)N[C@@H](CCCCNC(=O)CC[C@H](NC(=O)CNC(=O)CC[C@H](NC(=O)CCCCCCCCCCCCCCCCC(=O)O)C(=O)O)C(=O)O)C(N)=O)NC(=O)[C@H](CCCNC(=N)N)NC(=O)[C@H](Cc2c[nH]cn2)NC(=O)[C@H](CCC(=O)O)NC(=O)CNC(=O)[C@H](Cc2c[nH]c3ccccc23)NC(=O)[C@H](CC(=O)O)NC(=O)[C@H](CCC(N)=O)NC(=O)[C@H](Cc2cn(C)c3ccccc23)NC1=O
B8 gave an IC50[nM], inhibition of hemolysis of less than 500 nM.

With Ac-SEFCI[Trp(1-Me)]QDWGEHRCTEGE[8‑aminooctanoyl]EK([γGlu-Gly-γGlu-C18 diacid])-NH2 (disulfide 4-14) [Compound 137], the IC50[nM], inhibition of hemolysis is less than 100 nM.

B9: Compound 115 (peptide)
peptide: Ac-SEYCI[Trp(1-Me)]QDWGEHRC[Sar]EGKK([γGlu-Gly-γGlu-C18 diacid])-NH2
modifications: disulfide 4-14
SMILES: CC[C@H](C)[C@@H]1NC(=O)[C@@H](NC(=O)[C@H](Cc2ccc(O)cc2)NC(=O)[C@H](CCC(=O)O)NC(=O)[C@H](CO)NC(C)=O)CSSC[C@@H](C(=O)N(C)CC(=O)N[C@@H](CCC(=O)O)C(=O)NCC(=O)N[C@@H](CCCCN)C(=O)N[C@@H](CCCCNC(=O)CC[C@H](NC(=O)CNC(=O)CC[C@H](NC(=O)CCCCCCCCCCCCCCCCC(=O)O)C(=O)O)C(=O)O)C(N)=O)NC(=O)[C@H](CCCNC(=N)N)NC(=O)[C@H](Cc2c[nH]cn2)NC(=O)[C@H](CCC(=O)O)NC(=O)CNC(=O)[C@H](Cc2c[nH]c3ccccc23)NC(=O)[C@H](CC(=O)O)NC(=O)[C@H](CCC(N)=O)NC(=O)[C@H](Cc2cn(C)c3ccccc23)NC1=O
B9 came in with an IC50[nM], inhibition of hemolysis of less than 250 nM.

The record behind these values is patent publication US20220306695A1, “COMPSTATIN ANALOGUES AND THEIR MEDICAL USES” (priority 2019, published 2022).
